# Target: the molecule itself
# Assay: crystal structure; AtGSTF2 (10 mg/mL) co-crystallised with small-molecule ligands 1-4 (5 or 10 mM); four structures at 2.00-2.77 Å; dimers in the asymmetric unit
protein,measurement,value
"Arabidopsis thaliana phi class glutathione transferase AtGSTF2 (enzyme, AtGSTF2, phi class glutathione transferase of Arabidopsis thaliana; no tag is named, and the protein was purified on GSH sepharose; also called phi class GST; source: E. coli Tuner (DE3) with pRARE, purified (GSH sepharose 4B, S75 Superdex gel filtration)) MAGIKVFGHPASIATRRVLIALHEKNLDFELVHVELKDGEHKKEPFLSRNPFGQVPAFEDGDLKLFESRAITQYIAHRYENQGTNLLQTDSKNISQYAIMAIGMQVEDHQFDPVASKLAFEQIFKSIYGLTTDEAVVAEEEAKLAKVLDVYEARLKEFKYLAGETFTLTDLHHIPAIQYLLGTPTKKLFTERPRVNEWVAEITKRPASEKVQ",stoichiometry N,2

# Source: article PMC5292665, “Structural evidence for Arabidopsis glutathione transferase AtGSTF2 functioning as a transporter of small organic ligands” (FEBS Open Bio, 2016)
